We go through 17 molecules from patent US20230029453A1.

Some targets named below: HLA-A*02:01 (human); HLA-B*08:01 (human); HLA-A*24:02 (human); HLA-A*01:01 (human); HLA-B*07:02 (human); HLA-A*03:01 (human); HLA-B*27:05 (human).
Assay in all cases: UV peptide exchange; HLA class I ELISA
Common to all, as to settings: remark: other sources report otherwise
On the technique in general: In an ELISA, binding on a coated surface is turned into a signal by an enzyme label.

B1: P61 9-mer … (FOXA1.p.R261G) (peptide)
peptide: CYLGRQKRF
modifications: here or on the partner: biotinylated heavy chain
For the molecule B1, the exchange rate with Pos with HLA-A*02:01 (human) stood at 5.8%; with HLA-B*08:01 (human), 3.6%; in the test with HLA-A*24:02 (human), 90.3%; with HLA-A*01:01 (human), 1.7%.

B2: P56 9-mer … (SPOP F102C) (peptide)
peptide: RAKCKFSIL
modifications: here or on the partner: biotinylated heavy chain
As to B2, the exchange rate with Pos stood at 8.4% with HLA-A*02:01 (human); 82.5% with HLA-B*07:02 (human); 38% in the test with HLA-B*08:01 (human); 6.8% with HLA-A*03:01 (human); 0.5% in the test with HLA-A*24:02 (human); 2.6% in the test with HLA-A*01:01 (human).

B3: P73 9-mer … (TP53 G266E) (peptide)
peptide: LLERNSFEV
modifications: here or on the partner: biotinylated heavy chain
Regarding B3, the exchange rate with Pos amounted to 89.2% with HLA-A*02:01 (human); 8.7% in the test with HLA-B*07:02 (human); 2.6% with HLA-B*08:01 (human); 3.5% with HLA-A*03:01 (human); 0.5% in the test with HLA-A*24:02 (human).

B4: Exchange control peptide … (peptide)
peptide: NPKASLLSL
modifications: not checked
In the test with HLA-A*01:01 (human), B4 registered an Average % of 6.5%, an Exch I (%) of 7.4% and an Exch II (%) of 5.6%.

B5: P48 9-mer … (AR.p.H875Y) (peptide)
peptide: YQFTFDLLI
modifications: here or on the partner: biotinylated heavy chain
As to B5, the exchange rate with Pos with HLA-A*02:01 (human) turned out to be 99.3%; with HLA-B*07:02 (human) it was 12.8%; in the test with HLA-A*03:01 (human) it was 4.4%; in the test with HLA-A*24:02 (human) it was 0.1%; with HLA-A*01:01 (human), 4.3%.

B6: P17 9-mer … (MSMB-NOCA4 fusion) (peptide)
peptide: RAVRRMNTF
modifications: here or on the partner: biotinylated heavy chain
In the case of B6, the exchange rate with Pos with HLA-B*07:02 (human) was determined as 38.7%; with HLA-B*08:01 (human), 9%; with HLA-A*03:01 (human), 3.8%; with HLA-A*24:02 (human) it was 0.1%; in the test with HLA-A*01:01 (human) it was 4.9%.

B7: P58 9-mer … (AR Q903H) (peptide)
peptide: HVPKILSGK
modifications: here or on the partner: biotinylated heavy chain
B7: the exchange rate with Pos in the test with HLA-A*02:01 (human) is 11.8%; in the test with HLA-B*08:01 (human), 5.3%; with HLA-A*03:01 (human) it was 32.5%; in the test with HLA-A*24:02 (human), 0.2%; in the test with HLA-A*01:01 (human) it was 2.5%.

B8: P60 9-mer … (FOXA1.p.F266L) (peptide)
peptide: YLRRQKRLK
modifications: here or on the partner: biotinylated heavy chain
In the case of B8, the exchange rate with Pos in the test with HLA-A*02:01 (human) came to 7.9%; in the test with HLA-B*07:02 (human), 6.1%; in the test with HLA-B*08:01 (human), 10.2%; with HLA-A*03:01 (human) it was 36.6%; in the test with HLA-A*24:02 (human), 0.9%; with HLA-A*01:01 (human) it was 3.1%.

B9: P97 9-mer … (FOXRED2-TXN2 fusion) (peptide)
peptide: LMAQRLLLR
modifications: here or on the partner: biotinylated heavy chain
Consider B9, for which the exchange rate with Pos turned out to be 4.6% in the test with HLA-A*02:01 (human); 7% with HLA-B*07:02 (human); 2.7% in the test with HLA-B*08:01 (human); 39% with HLA-A*03:01 (human); 0.1% with HLA-A*24:02 (human); 2.5% in the test with HLA-A*01:01 (human).

B10: P82 9-mer … (AR-V7) (peptide)
peptide: RVGNCKHLK
modifications: here or on the partner: biotinylated heavy chain
On to B10, for which the exchange rate with Pos was 6.3% in the test with HLA-A*02:01 (human); 12.9% with HLA-B*07:02 (human); 1.4% in the test with HLA-B*08:01 (human); 58.1% with HLA-A*03:01 (human); -0.1% with HLA-A*24:02 (human); 1.5% with HLA-A*01:01 (human).

B11: P46 9-mer … (TP53 R213D frameshift) (peptide)
peptide: CPMSRLRLA
modifications: here or on the partner: biotinylated heavy chain
As to B11, the exchange rate with Pos with HLA-A*02:01 (human) is 14.4%; in the test with HLA-B*07:02 (human), 64.8%; with HLA-B*08:01 (human), 14.5%; in the test with HLA-A*03:01 (human) it was 10.3%; in the test with HLA-A*24:02 (human) it was -0.4%; with HLA-A*01:01 (human) it was 2.4%.

B12: P98 9-mer … (TP53 R213D frameshift) (peptide)
peptide: IVWWCPMSR
modifications: here or on the partner: biotinylated heavy chain
For B12, the exchange rate with Pos was 7.9% with HLA-A*02:01 (human); 6.7% in the test with HLA-B*07:02 (human); 2.4% with HLA-B*08:01 (human); 51.1% with HLA-A*03:01 (human); -0.1% with HLA-A*24:02 (human); 2.5% with HLA-A*01:01 (human).

B13: P19 9-mer … (TMEM222-LOC644061 fusion) (peptide)
peptide: IPVLTRWPL
modifications: here or on the partner: biotinylated heavy chain
B13: the exchange rate with Pos in the test with HLA-A*02:01 (human) was 8.2%; with HLA-B*07:02 (human) it was 91.3%; with HLA-B*08:01 (human), 14.5%; in the test with HLA-A*03:01 (human), 4.1%; with HLA-A*24:02 (human), 0.1%; with HLA-A*01:01 (human) it was 5.2%.

B14: P76 9-mer … (AR-V3) (peptide)
peptide: YCMAAPMGL
modifications: here or on the partner: biotinylated heavy chain
Take B14: the exchange rate with Pos is 85.9% with HLA-A*02:01 (human); 91.5% with HLA-B*07:02 (human); 6% with HLA-A*03:01 (human); -0.5% with HLA-A*24:02 (human); 0.1% in the test with HLA-A*01:01 (human).

B15: P22 9-mer … (SLC45A3-ELK4 fusion) (peptide)
peptide: QLIAMDSAI
modifications: here or on the partner: biotinylated heavy chain
B15: the Average % with HLA-A*02:01 (human) worked out at 41.5%; with HLA-B*07:02 (human) it was 12%; in the test with HLA-B*08:01 (human) it was 7.9%; with HLA-B*27:05 (human) it was 4.3%; in the test with HLA-A*24:02 (human), 4.5%; with HLA-A*01:01 (human), 5%. The Exch I (%) with HLA-A*02:01 (human) is 40%; in the test with HLA-B*07:02 (human), 12.2%; in the test with HLA-B*08:01 (human), 8%; with HLA-B*27:05 (human), 4.7%; with HLA-A*24:02 (human), 4.8%; with HLA-A*01:01 (human), 5%. For the same molecule, the Exch II (%) is 43.1% in the test with HLA-A*02:01 (human); 11.8% with HLA-B*07:02 (human); 7.8% with HLA-B*08:01 (human); 3.9% with HLA-B*27:05 (human); 4.1% with HLA-A*24:02 (human); 4.9% with HLA-A*01:01 (human). For the same molecule, the exchange rate with Pos in the test with HLA-A*02:01 (human) came to 46.9%; in the test with HLA-B*07:02 (human) it was 8.3%; in the test with HLA-B*08:01 (human), 3.9%; with HLA-A*03:01 (human), 4.8%; with HLA-A*24:02 (human), 0%; in the test with HLA-A*01:01 (human) it was 4.4%.

B16: P87 9-mer … (AR-Intron) (peptide)
peptide: FLFLLLPLS
modifications: here or on the partner: biotinylated heavy chain
B16: the exchange rate with Pos came out at 64% with HLA-A*02:01 (human); 5% in the test with HLA-B*07:02 (human); 3.1% with HLA-B*08:01 (human); 2.4% with HLA-A*03:01 (human); 0.2% with HLA-A*24:02 (human); 1.1% in the test with HLA-A*01:01 (human).

B17: Exchange control peptide … (peptide)
peptide: LIYRRRLMK
modifications: not checked
For B17, in the test with HLA-B*07:02 (human), the Average % amounted to 13.7%, the Exch I (%) stood at 13% and the Exch II (%) turned out to be 14.3%.
